In the Immune Epitope Database (IEDB):

Experiments:
HLA-B*35:01 = test: IEDB peptide-MHC binding, purified MHC/competitive/radioactivity; filed as Kd, often an IC50 or EC50 that approximates it; ≥ and ≤ were set here for values at or beyond the usual limits of such assays
HLA-B*53:01 = test: as above
HLA-B*51:01 = test: as above
HLA-B*07:02 = test: as above
HLA-B*54:01 = test: as above
HLA-B*40:02 = test: as above
HLA-B*40:01 = test: as above
HLA-B*45:01 = test: as above
HLA-B*44:03 = test: as above
HLA-B*18:01 = test: as above
HLA-B*44:02 = test: as above
HLA-A*03:01 = test: IEDB peptide-MHC binding, purified MHC/competitive/fluorescence; filed as Kd, often an IC50 or EC50 that approximates it; ≥ and ≤ were set here for values at or beyond the usual limits of such assays
HLA-B*15:01 = test: as above; settings: source organism: Yersinia pestis Antiqua
HLA-A*11:01 = test: IEDB peptide-MHC binding, purified MHC/competitive/fluorescence; ≥ and ≤ were set here for values at or beyond the usual limits of such assays
HLA-A*02:01 = test: as above; settings: source organism: Zaire ebolavirus
[1] = source organism: Vaccinia virus WR
[2] = source organism: Mammarenavirus machupoense
[3] = source organism: Mammarenavirus juninense
[4] = source organism: SARS coronavirus Tor2
[5] = source organism: Zaire ebolavirus

KPFNNILNLI
Kd (HLA-B*35:01; [1]): ≥ 69.9 µM | Kd (HLA-B*53:01; [1]): ≥ 69.9 µM | Kd (HLA-B*51:01; [1]): ≥ 10 µM | Kd (HLA-B*07:02; [1]): 1.14 µM | Kd (HLA-B*54:01; [1]): ≥ 69.9 µM

TPLHKYCVNL
Kd (HLA-B*35:01; [1]): 7.36 µM | Kd (HLA-B*53:01; [1]): 0.891 µM | Kd (HLA-B*51:01; [1]): ≥ 37.1 µM | Kd (HLA-B*07:02; [1]): 0.0113 µM | Kd (HLA-B*54:01; [1]): 4.86 µM

ADMSKLLNL
Kd (HLA-B*40:02; [2]): 0.339 µM | Kd (HLA-B*40:01; [2]): 6.25 µM | Kd (HLA-B*45:01; [2]): ≥ 77.7 µM | Kd (HLA-B*44:03; [2]): ≥ 51.4 µM | Kd (HLA-B*18:01; [2]): ≥ 77.5 µM | Kd (HLA-B*44:02; [2]): 5.44 µM

LPPFTQHLL
Kd (HLA-B*35:01; [1]): 0.24 µM | Kd (HLA-B*53:01; [1]): 0.0913 µM | Kd (HLA-B*51:01; [1]): 0.0186 µM | Kd (HLA-B*07:02; [1]): 0.401 µM | Kd (HLA-B*54:01; [1]): 3.03 µM

SEILRTLGF
Kd (HLA-B*40:02; [3]): 0.0561 µM | Kd (HLA-B*40:01; [3]): 4.18 µM | Kd (HLA-B*45:01; [3]): 7.59 µM | Kd (HLA-B*44:03; [3]): 0.0373 µM | Kd (HLA-B*18:01; [3]): 0.115 µM | Kd (HLA-B*44:02; [3]): 0.0187 µM

EPSGNNYHIL
Kd (HLA-B*35:01; [1]): 8.08 µM | Kd (HLA-B*53:01; [1]): 2.96 µM | Kd (HLA-B*51:01; [1]): ≥ 69.6 µM | Kd (HLA-B*07:02; [1]): 1.67 µM | Kd (HLA-B*54:01; [1]): 15.5 µM

DPDHYKDYA
Kd (HLA-B*35:01; [1]): ≥ 77.4 µM | Kd (HLA-B*53:01; [1]): ≥ 75.5 µM | Kd (HLA-B*51:01; [1]): ≥ 22.5 µM | Kd (HLA-B*07:02; [1]): 14.8 µM | Kd (HLA-B*54:01; [1]): 7.01 µM

CLRIPMTDK
Kd (HLA-A*03:01; source organism: Bacillus thuringiensis str. Al Hakam): 0.0529 µM

APAICHEGKA
Kd (HLA-B*35:01; [4]): ≥ 53.5 µM | Kd (HLA-B*53:01; [4]): 17.3 µM | Kd (HLA-B*51:01; [4]): ≥ 43 µM | Kd (HLA-B*07:02; [4]): 2.01 µM | Kd (HLA-B*54:01; [4]): 1.47 µM

YMFESKRMK
Kd (HLA-A*03:01; source organism: Influenza A virus (A/swine/Finistere/127/99(H3N2))): 0.0194 µM

AMLDRILHH
Kd (HLA-B*15:01): 6.16 µM | Kd (HLA-A*03:01; source organism: Yersinia pestis Antiqua): 0.0095 µM

SPLPSLEYGA
Kd (HLA-B*35:01; [1]): 6 µM | Kd (HLA-B*53:01; [1]): 12.4 µM | Kd (HLA-B*51:01; [1]): ≥ 69.6 µM | Kd (HLA-B*07:02; [1]): 1.64 µM | Kd (HLA-B*54:01; [1]): 0.000204 µM

VLRRGALAH
Kd (HLA-A*03:01; source organism: Vibrio cholerae 2740-80): 0.014 µM

VLTGGTGVG
IC50 (HLA-A*11:01; source organism: Variola virus): ≥ 80.6 µM

TPVYKLDIS
IC50 (HLA-A*02:01): ≥ 170 µM | IC50 (HLA-A*11:01; [5]): 65.8 µM

RCYPGYTLK
Kd (HLA-A*03:01; source organism: Giardia lamblia ATCC 50803): 0.0623 µM

VVAFLILPQ
IC50 (HLA-A*02:01): ≥ 1420 µM | IC50 (HLA-A*11:01; [5]): ≥ 1240 µM

LPMIIGEPII
Kd (HLA-B*35:01; [1]): 0.75 µM | Kd (HLA-B*53:01; [1]): 0.0333 µM | Kd (HLA-B*51:01; [1]): 0.456 µM | Kd (HLA-B*07:02; [1]): 0.00912 µM | Kd (HLA-B*54:01; [1]): 0.0311 µM

HGEYAPFAR
IC50 (HLA-A*11:01; [5]): 61.7 µM
